# Results: PMC3628942
# Target: Bombyx mori lipoprotein 3 (Bombyx mori) (UniProt Q00802)
# Assay: crystal structure; crystal form Bmlp3-c2, space group C2, two molecules in the asymmetric unit; grown in 2.0 M ammonium sulfate, 0.1 M ammonium iodide, pH 5.5, 20°C; an iodide anion lies in the centre of the dimer interface
substance,measurement,value
Bombyx mori lipoprotein 3 (from UniProt Q00802 18-256) (natural protein),stoichiometry N,2
